In article PMC11761708:

Molecular target: protein G-Fc (Fc specific protein G variant)
Experiment: SPR

Question: Which Kd does the source give for “human Fc (Fc domain of IgG) (domain or fragment)” here?
Answer: 3.8 nM
